Patent US9434716B2, “Antigen binding proteins” (Glaxo Group Limited, priority 2011, dated 2016)
“Also recorded” adds a separate entry of the source. Blank lines part the entries; values can stand above or below the molecule they belong to.

Columns and labels:
[1] = target: T1, circulating SAP (Homo sapiens, UniProt P02743); details: for as long as the drug is administered; cited from earlier work
T1 construct: host or cells: circulating plasma protein in vivo

[2] = initial clinical studies; cited from earlier work
[3] = target: T2, human SAP (Homo sapiens, UniProt P02743); test: Biacore kinetics, human SAP captured on immobilised O-phosphoethanolamine; format: binding; details: for binding with respect to H3L0: amino acid scan at position 91 of SAP-K L0 light chain
T2 construct: from tissue; host or cells: natural human SAP, purified
Experimental: O-phosphoethanolamine was immobilised on a Biacore CM5 chip by primary amine coupling in accordance with the manufacturer's instructions. Human SAP was then captured on the surface in the presence of calcium chloride, in order to replicate in the Biacore system in vitro, the precise orientation of SAP molecules bound to amyloid fibrils in vivo. Anti SAP antibodies were then passed over this surface at 256, 64, 16, 4, 1 nM and a binding sensorgrams obtained. Analysis was carried out at 25° C. using 4% BSA, 10 mM Tris, 140 mM NaCl, 2 mM CaCl2, 0.05% surfactant P20, 0.02% Na N3, pH 8.0 as running buffer. […] Data generated were double referenced with a buffer injection over the human SAP surface and analyzed using the bivalent analyte model in the Biacore T100 evaluation software.

[4] = target: T2, human SAP; test: Human SAP binding ELISA, SAP-K and SAP-E hybridoma antibodies; details: 1 μg/mL lower density coating of human SAP
Experimental: 1 μg/mL or 5 μg/mL human SAP was directly immobilised onto an ELISA plate and blocked with 1% BSA/TBS plus 0.05% TWEEN20. Anti-SAP antibodies from purified material were titrated across the plate. Bound antibody was detected by treatment with a horse-radish peroxidase (HRP)-conjugated rabbit-anti-mouse IgG antibody (Dako, P0260). The ELISA was developed using O-phenylenediamine dihydrochloride (OPD) peroxidase substrate (Sigma, P9187).

[5] = target: T2, human SAP; test: Competition ELISA with chimeric anti-SAP mAb; format: binding; details: human SAP coated at 5 μg/mL; purified murine mAb
Excerpt: A constant concentration of chimeric anti-SAP mAb was mixed with serial diluted (1:1) amounts of mouse anti-SAP mAbs. Plates were washed and the amount of chimeric antibody bound to the immobilised human SAP was detected using goat anti-human Kappa Light chain peroxidase conjugate (Sigma, A7164). The ELISA was developed using O-phenylenediamine dihydrochloride (OPD) peroxidase substrate (Sigma, P9187).

[6] = target: T2, human SAP; test: Biacore (BIAcoreX), human SAP covalently immobilised on the chip; format: binding; details: mean and SD of 3 replicate measurements
[7] = target: T2, human SAP; test: Binding of mouse monoclonals to immobilised human SAP in vitro
Excerpt: SAP-E and SAP-K are from two groups of anti-SAP monoclonals, each group having been tested separately for their binding to human SAP in vitro.
SAP-K was selected from among the 6 different, most avidly binding, mouse IgG2a monoclonals, derived by standard techniques from immunization with purified human SAP and a conventional fusion to produce hybridomas which were cloned by routine methods. […] This was the case regardless of whether the human SAP had been directly immobilised on plastic surfaces by non-specific adherence or by covalent attachment, or by the specific calcium dependent binding of SAP to immobilised ligands, whether amyloid fibrils or the small molecule ligand, phosphoethanolamine. SAP-K also bound well to directly immobilised SAP in the presence or absence of calcium, and if the SAP had previously been complexed with CPHPC and then covalently ‘fixed’ in the decameric SAP-CPHPC complex (Pepys, M. B. et al (2002) Targeted pharmacological depletion of serum amyloid P component for treatment of human amyloidosis. Nature, 417: 254-259; Kolstoe, S. E. et al (2009) Molecular dissection of Alzheimer's disease neuropathology by depletion of serum amyloid P component. Proc. Natl. Acad. Sci. USA, 106: 7619-7623). SAP-E also bound well to human SAP in all these different configurations.

[8] = target: T3, native human SAP (Homo sapiens, UniProt P02743); test: Double immunodiffusion in agarose gel; format: binding; details: isolated pure human SAP and whole human serum
T3 construct: against both isolated pure human SAP and whole human serum; from tissue; host or cells: whole human serum, and isolated pure human SAP

[9] = target: T2, human SAP; test: Western blotting and fragment epitope mapping (CNBr, chymotrypsin); format: binding
Excerpt: This is consistent with the kinetic stability and resistance to denaturation of SAP (Manning, M. and Colón, W. (2004) Biochemistry, 43: 11248-11254).
B, SDS-PAGE analysis of SAP cleaved with CNBr. […] These were precisely confirmed by mass spectrometry. […] C, SDS-PAGE analysis of SAP digested with chymotrypsin. Left panel: Coomassie blue stain; lane 1, untreated control SAP; lane 2, SAP after chymotrypsin digestion, showing the expected major fragments corresponding to residues 1-140 and 145-204. These were precisely confirmed by mass spectrometry. Right panel: Western blot with SAP-E showing intense staining of intact untreated SAP in lanes 1 (500 ng loaded) and 2 (100 ng), and also residual intact SAP in lanes 3 and 4 which contained the chymotrypsin digested SAP at different loadings. Very weak binding of SAP-E to the residue 1-140 fragment is seen only in lane 3 which was most heavily loaded. […] D, Sequence comparison between human SAP (h) and mouse SAP (m) for residues 136-147. Top panel, differences indicated above by residues shown in black in the murine sequence. Bottom panel, position of this extended loop with 140Y at its apex shown in white in the 3D subunit structure of human SAP. The different residues in the murine sequence are shown in black. The grey spheres represent the calcium atoms bound in the ligand binding pocket.

[10] = tested on: mice with systemic AA amyloidosis; test: SAP-K in clearing amyloid deposits, mouse AA amyloidosis model (Example 15); format: in vivo; details: lower doses of 1 mg, 0.5 mg and 0.1 mg per mouse
Experimental: AA amyloidosis was induced and confirmed in wild-type C57BL/6 mice as detailed in Example 10 above. After loading the amyloid deposits with human SAP also detailed in Example 10, groups of mice were treated with 50 mg per mouse of total IgG as the whole IgG fraction (batch 2866) of the sheep polyclonal anti-human SAP antiserum providing a dose of 7 mg of actual anti-SAP antibody, […], and, as a negative control, isolated purified monoclonal mouse IgG2a antibody specific for an unrelated human antigen and unreactive with either human SAP or any murine antigen. All mice were killed 17 days later for estimation of amyloid load by Congo red staining.

[11] = target: T2, human SAP; test: Biacore off-rate ranking, SAP immobilised on C1 chip; format: binding; details: culture supernatants, chimera purified at […], single curve, for ranking, 25° C.
Experimental: Human and cynomologus monkey SAP were immobilised on a Biacore C1 chip by primary amine coupling in accordance with the manufacturer's instructions. […] All runs were double referenced with a buffer injection for purified sample or media for the supernatant samples over the human and cyno SAP surfaces. Analysis was carried out at 25° C. using HBS-EP buffer. […] Data were analysed using the 1 to 1 dissociation model within the Biacore T100 evaluation software.
The data generated in Tables 6a and 6b show off-rates (kd) of the humanised SAP-E and SAP-K antibody supernatants respectively. The values were based on a single curve and used for ranking purposes between the different constructs for binding to human SAP. […] The SAP-E humanised L1 light chain was the best light chain variant and combination of the L1 with the H1 heavy chain variant gave a humanised antibody with an acceptable off-rate whilst keeping the number of back mutations to a minimum.

[12] = CM5 chip, calcium, bivalent analyte model, 25° C., for comparison only, avidity effect

T2 sequence (P02743 20-223): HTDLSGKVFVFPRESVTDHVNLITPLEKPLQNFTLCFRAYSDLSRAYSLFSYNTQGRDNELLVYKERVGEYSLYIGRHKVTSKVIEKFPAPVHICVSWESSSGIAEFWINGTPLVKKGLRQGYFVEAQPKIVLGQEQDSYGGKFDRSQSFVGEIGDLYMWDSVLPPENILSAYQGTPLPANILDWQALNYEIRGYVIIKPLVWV
T1 sequence (P02743 20-223): as above
T3 sequence (P02743 20-223): as above

Molecule: O=C(O)[C@H]1CCCN1C(=O)CCCCC(=O)N1CCC[C@@H]1C(=O)O [CPHPC, (R)-1-[6-[(R)-2-Carboxy-pyrrolidin-1-yl]-6-oxo-hexanoyl]pyrrolidine-2-carboxylic acid]
- depletion of circulating SAP [1]: depletes almost all circulating SAP
- effect on amyloid [2]: did not produce amyloid regression

Molecule: serine
- binding with respect to H3L0 [3]: improved binding with respect to H3L0, but to a lesser extent than alanine

Molecule: glycine
- binding with respect to H3L0 [3]: improved binding with respect to H3L0, but to a lesser extent than alanine

Molecule: valine
- binding with respect to H3L0 [3]: improved binding with respect to H3L0, but to a lesser extent than alanine

- binding to the immobilised human SAP [4]: greater binding than the SAP-E
- competition with SAP-E chimera [5]: no competition
- ka [3, 12]: 300000 M⁻¹ s⁻¹
- kd [3, 12]: 0.000219 s⁻¹
- ka [6]: 3.18 ± 5 × 10^4 M^−1 sec^−1
- binding to immobilised human SAP ([7]; human SAP sparsely available, plates coated with 1 μg/ml): much more SAP-K than SAP-E became bound
- binding to native human SAP in western blotting ([9]; after agarose gel electrophoresis in physiological buffers): bound
- binding to human SAP in western blotting from reduced SDS-PAGE ([9]; denatured human SAP): only recognises native human SAP
B1: SAP-K: mouse IgG2a monoclonal anti-human SAP antibody, VH SEQ ID NO:17, VL SEQ ID NO:19 (antibody, V domains shown)
VH: QVQLQQPGAELIKPGASVKLSCKASGYTFTSYWMHWVKQRPGQGLEWIGMIHPNSVNTNYNEKFKSKATLTVDKSSSTAYMQLNSLTSEDSAVYYCARRNDYYWYFDVWGTGTTVTVSS
VL: DIVMTQSQKFMSTSVGDRVSVTCKASQNVNSNVAWYQQKPGQSPKALIYSASYRYSGVPDRFTGSGSGTDFTLTITNVQSEDLAEYFCQQCNNYPFTFGSGTKLEIK
- kd [6]: 1.7 ± 0.9 × 10^−5 sec^−1
- binding to human SAP in vitro ([7]; compared within the group of monoclonals): strongest binding to SAP, within their groups; also recorded: greatest binding to immobilised human SAP
- binding to native human SAP (immunoprecipitation) [8]: bound apparently equally well to native human SAP
- effect on amyloid deposits [10]: no significant effect

- kd [11]: 0.0296 s⁻¹
B2: SAP-K H1L1: humanised SAP-K, VH SEQ ID NO:38, VL SEQ ID NO:42 (antibody, V domains shown)
VH: QVQLVQSGAEVKKPGSSVKVSCKASGYTFTSYWMHWVRQAPGQGLEWMGMIHPNSVNTNYNEKFKSRVTITADKSTSTAYMELSSLRSEDTAVYYCARRNDYYWYFDVWGQGTLVTVSS
VL: DIQMTQSPSSLSASVGDRVTITCKASQNVNSNVAWYQQKPGKAPKALIYSASYRYSGVPSRFSGSGSGTDFTLTISSLQPEDFATYYCQQCNNYPFTFGQGTKLEIK

- kd [11]: 0.0321 s⁻¹
B3: SAP-K H2L1: humanised SAP-K, VH SEQ ID NO:39, VL SEQ ID NO:42 (antibody, V domains shown)
VH: QVQLVQSGAEVKKPGSSVKVSCKASGYTFTSYWMHWVRQAPGQGLEWIGMIHPNSVNTNYNEKFKSRATITADKSTSTAYMELSSLRSEDTAVYYCARRNDYYWYFDVWGQGTLVTVSS
VL: DIQMTQSPSSLSASVGDRVTITCKASQNVNSNVAWYQQKPGKAPKALIYSASYRYSGVPSRFSGSGSGTDFTLTISSLQPEDFATYYCQQCNNYPFTFGQGTKLEIK

- kd [11]: 0.0479 s⁻¹
B4: SAP-K H0L1: humanised SAP-K, VH SEQ ID NO:37, VL SEQ ID NO:42 (antibody, V domains shown)
VH: QVQLVQSGAEVKKPGSSVKVSCKASGGTFSSYWMHWVRQAPGQGLEWMGMIHPNSVNTNYNEKFKSRVTITADKSTSTAYMELSSLRSEDTAVYYCARRNDYYWYFDVWGQGTLVTVSS
VL: DIQMTQSPSSLSASVGDRVTITCKASQNVNSNVAWYQQKPGKAPKALIYSASYRYSGVPSRFSGSGSGTDFTLTISSLQPEDFATYYCQQCNNYPFTFGQGTKLEIK
